Values quoted from earlier work, collected in patent US20220062372A1, “METHODS FOR TREATING DISEASE AND REDUCING DRUG-INDUCED LIVER INJURY IN PATIENT POPULATIONS” (Ten Peaks LLC, priority 2020, published 2022).

Settings: background description of the marketed drug

B1: KEVZARA: IL-6 receptor antagonist (antibody, chains of the INN, looked up, V domains shown)
VH: EVQLVESGGGLVQPGRSLRLSCAASRFTFDDYAMHWVRQAPGKGLEWVSGISWNSGRIGYADSVKGRFTISRDNAENSLFLQMNGLRAEDTALYYCAKGRDSFDIWGQGTMVTVSS
VL: DIQMTQSPSSVSASVGDRVTITCRASQGISSWLAWYQQKPGKAPKLLIYGASSLESGVPSRFSGSGSGTDFTLTISSLQPEDFASYYCQQANSFPYTFGQGTKLEIK
In the case of B1, the “hepatic adverse reactions reported in patients” value is given as “associated with a higher incidence of transaminase elevations”.
